Assay results reported in PMC9482650, “Quantitative fragmentomics allow affinity mapping of interactomes” (Nature Communications, 2022).

T1: APBA1_2, Q02410
T1 sequence (Q02410 742-832, limits assumed, looked up): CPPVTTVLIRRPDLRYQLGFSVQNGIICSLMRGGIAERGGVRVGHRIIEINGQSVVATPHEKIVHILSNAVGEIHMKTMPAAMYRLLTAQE

T2: CARD11, Q9BXL7
T2 sequence (Q9BXL7 662-765, limits assumed, looked up): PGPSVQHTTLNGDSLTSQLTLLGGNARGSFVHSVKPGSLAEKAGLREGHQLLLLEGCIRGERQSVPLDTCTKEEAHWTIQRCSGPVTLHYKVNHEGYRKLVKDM

T3: LIN7A, O14910
T3 sequence (O14910 103-200, limits assumed, looked up): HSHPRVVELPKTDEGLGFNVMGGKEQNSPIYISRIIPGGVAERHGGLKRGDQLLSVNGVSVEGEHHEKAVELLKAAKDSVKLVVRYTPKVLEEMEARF

T4: LNX2_3, Q8N448
T4 sequence (Q8N448 463-564, limits assumed, looked up): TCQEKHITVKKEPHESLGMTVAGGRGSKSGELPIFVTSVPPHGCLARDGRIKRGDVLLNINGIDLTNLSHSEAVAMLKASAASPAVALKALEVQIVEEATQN

T5: MPDZ_12, O75970
T5 sequence (O75970 1857-1958, limits assumed, looked up): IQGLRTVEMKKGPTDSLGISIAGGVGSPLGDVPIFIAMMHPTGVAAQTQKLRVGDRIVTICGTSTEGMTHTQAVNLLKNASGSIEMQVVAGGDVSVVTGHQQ

T6: NHERF3_4, Q5T2W1
T6 sequence (Q5T2W1 373-468, limits assumed, looked up): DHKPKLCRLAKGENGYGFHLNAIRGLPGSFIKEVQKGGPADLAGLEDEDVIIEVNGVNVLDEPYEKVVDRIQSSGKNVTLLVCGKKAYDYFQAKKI

T7: PDZD2_2, O15018
T7 sequence (O15018 329-429, limits assumed, looked up): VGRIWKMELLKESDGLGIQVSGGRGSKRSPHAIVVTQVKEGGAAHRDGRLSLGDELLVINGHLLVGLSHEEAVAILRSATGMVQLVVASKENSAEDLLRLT

T8: RAPGEF6, Q8TEU7
T8 sequence (Q8TEU7 525-625, limits assumed, looked up): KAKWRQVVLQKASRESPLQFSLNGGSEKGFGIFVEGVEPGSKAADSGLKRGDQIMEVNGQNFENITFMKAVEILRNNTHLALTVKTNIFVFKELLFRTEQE

T9: SHANK1, Q9Y566
T9 sequence (Q9Y566 658-767, limits assumed, looked up): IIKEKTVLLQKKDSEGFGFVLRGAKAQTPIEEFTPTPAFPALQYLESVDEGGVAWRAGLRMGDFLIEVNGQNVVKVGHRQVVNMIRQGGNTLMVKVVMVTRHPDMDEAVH


Legend:
Assay in all cases: holdup assay
Design in all cases: key: below the threshold = too weak to quantify, mostly under pKd 3.1 to 4
Details in all cases: plain residues with an end cap or a label only (N-terminal biotin on a linker: ado-ado)
APBA1_2, Q02410 = biological target: T1, APBA1_2, Q02410
CARD11, Q9BXL7 = biological target: T2, CARD11, Q9BXL7
DLG4_3, P78352 = biological target: DLG4_3, P78352
DLG4_3, P78352, sequence (P78352 306-403): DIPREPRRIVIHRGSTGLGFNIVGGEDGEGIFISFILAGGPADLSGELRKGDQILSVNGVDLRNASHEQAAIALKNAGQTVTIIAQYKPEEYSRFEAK

DLG5_1, Q8TDM6 = biological target: DLG5_1, Q8TDM6
DLG5_1, Q8TDM6, sequence (Q8TDM6 617-713): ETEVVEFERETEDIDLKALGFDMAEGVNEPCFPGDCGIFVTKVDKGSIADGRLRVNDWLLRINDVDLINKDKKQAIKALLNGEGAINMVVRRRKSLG

GRASP, Q7Z6J2 = biological target: GRASP, Q7Z6J2
GRASP, Q7Z6J2, sequence (Q7Z6J2 96-193): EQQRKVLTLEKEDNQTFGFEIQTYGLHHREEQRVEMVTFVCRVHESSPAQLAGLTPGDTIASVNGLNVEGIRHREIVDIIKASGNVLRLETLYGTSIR

GRIP2_4, Q9C0E4 = biological target: GRIP2_4, Q9C0E4
GRIP2_4, Q9C0E4, sequence (Q9C0E4 446-548): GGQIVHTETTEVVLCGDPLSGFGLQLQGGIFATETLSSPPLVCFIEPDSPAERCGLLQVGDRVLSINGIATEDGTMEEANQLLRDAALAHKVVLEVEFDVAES

GRIP2_6, Q9C0E4 = biological target: GRIP2_6, Q9C0E4
GRIP2_6, Q9C0E4, sequence (Q9C0E4 648-740): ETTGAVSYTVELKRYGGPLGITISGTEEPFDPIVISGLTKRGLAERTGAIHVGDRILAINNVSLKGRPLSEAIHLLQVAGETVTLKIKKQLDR

HTRA2, O43464 = biological target: HTRA2, O43464
HTRA2, O43464, sequence (O43464 355-458): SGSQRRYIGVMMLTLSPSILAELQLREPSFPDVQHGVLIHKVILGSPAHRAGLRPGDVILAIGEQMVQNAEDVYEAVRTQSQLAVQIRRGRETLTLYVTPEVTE

IL16_4, Q14005 = biological target: IL16_4, Q14005
IL16_4, Q14005, sequence (Q14005 1229-1329): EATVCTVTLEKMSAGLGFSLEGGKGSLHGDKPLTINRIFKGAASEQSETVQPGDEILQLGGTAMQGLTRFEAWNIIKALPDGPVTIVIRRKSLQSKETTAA

Inadl_3, Q8NI35 = biological target: Inadl_3, Q8NI35
Inadl_3, Q8NI35, sequence (Q8NI35 359-469): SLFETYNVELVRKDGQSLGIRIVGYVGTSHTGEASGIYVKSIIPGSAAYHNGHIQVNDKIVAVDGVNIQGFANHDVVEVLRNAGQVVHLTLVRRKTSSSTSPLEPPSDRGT

Inadl_8, Q8NI35 = biological target: Inadl_8, Q8NI35
Inadl_8, Q8NI35, sequence (Q8NI35 1425-1530): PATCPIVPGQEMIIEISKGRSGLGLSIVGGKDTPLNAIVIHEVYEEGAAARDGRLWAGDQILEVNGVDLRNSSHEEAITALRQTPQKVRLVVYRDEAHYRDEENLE

Inadl_9, Q8NI35 = biological target: Inadl_9, Q8NI35
Inadl_9, Q8NI35, sequence (Q8NI35 1530-1615): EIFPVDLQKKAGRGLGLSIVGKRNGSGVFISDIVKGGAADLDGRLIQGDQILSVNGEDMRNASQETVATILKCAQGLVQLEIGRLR

LIMK2, P53671 = biological target: LIMK2, P53671
LIMK2, P53671, sequence (P53671 143-248): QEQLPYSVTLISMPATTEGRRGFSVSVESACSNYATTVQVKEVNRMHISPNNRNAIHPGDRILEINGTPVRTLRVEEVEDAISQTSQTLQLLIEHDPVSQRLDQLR

LIN7A, O14910 = biological target: T3, LIN7A, O14910
LNX1_3, Q8TBB1 = biological target: LNX1_3, Q8TBB1
LNX1_3, Q8TBB1, sequence (Q8TBB1 500-596): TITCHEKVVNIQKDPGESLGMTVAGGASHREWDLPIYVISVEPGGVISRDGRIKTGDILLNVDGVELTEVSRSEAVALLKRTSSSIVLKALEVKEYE

LNX2_3, Q8N448 = biological target: T4, LNX2_3, Q8N448
MAGI1_1, Q96QZ7 = biological target: MAGI1_1, Q96QZ7
MAGI1_1, Q96QZ7, sequence (Q96QZ7 1-106): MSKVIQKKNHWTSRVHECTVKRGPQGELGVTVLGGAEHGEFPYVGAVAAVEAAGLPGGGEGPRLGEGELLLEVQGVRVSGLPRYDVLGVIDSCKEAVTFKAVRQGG

MAGI2_2, Q86UL8 = biological target: MAGI2_2, Q86UL8
MAGI2_2, Q86UL8, sequence (Q86UL8 410-522): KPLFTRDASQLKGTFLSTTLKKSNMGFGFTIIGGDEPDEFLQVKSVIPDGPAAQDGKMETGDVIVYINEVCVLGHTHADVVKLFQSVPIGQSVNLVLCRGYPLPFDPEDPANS

MPDZ_12, O75970 = biological target: T5, MPDZ_12, O75970
NHERF2_2, Q15599 = biological target: NHERF2_2, Q15599
NHERF2_2, Q15599, sequence (Q15599 142-238): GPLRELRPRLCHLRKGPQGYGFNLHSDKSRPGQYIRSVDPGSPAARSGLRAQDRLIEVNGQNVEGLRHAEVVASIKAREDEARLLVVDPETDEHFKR

NHERF3_4, Q5T2W1 = biological target: T6, NHERF3_4, Q5T2W1
NHERF4_1, Q86UT5-2 = biological target: NHERF4_1, Q86UT5-2
NHERF4_1, Q86UT5-2, sequence (Q86UT5 other isoform, or with tags, fused parts or gaps): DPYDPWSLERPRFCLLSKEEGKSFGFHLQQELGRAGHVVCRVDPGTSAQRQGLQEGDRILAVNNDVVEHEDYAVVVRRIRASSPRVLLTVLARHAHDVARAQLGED

PARD3_3, Q8TEW0 = biological target: PARD3_3, Q8TEW0
PARD3_3, Q8TEW0, sequence (Q8TEW0 582-685): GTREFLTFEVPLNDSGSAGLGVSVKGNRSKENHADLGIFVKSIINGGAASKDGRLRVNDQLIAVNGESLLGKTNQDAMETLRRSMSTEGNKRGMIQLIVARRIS

PDZD2_2, O15018 = biological target: T7, PDZD2_2, O15018
RAPGEF6, Q8TEU7 = biological target: T8, RAPGEF6, Q8TEU7
SCRIB_1, Q14160 = biological target: SCRIB_1, Q14160
SCRIB_1, Q14160, sequence (Q14160 718-814): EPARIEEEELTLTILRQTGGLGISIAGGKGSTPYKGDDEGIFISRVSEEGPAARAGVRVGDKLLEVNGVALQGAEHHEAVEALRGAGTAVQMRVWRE

SHANK1, Q9Y566 = biological target: T9, SHANK1, Q9Y566
SNX27, Q96L92 = biological target: SNX27, Q96L92
TJP2_1, Q9UDY2 = biological target: TJP2_1, Q9UDY2
TJP2_1, Q9UDY2, sequence (Q9UDY2 24-128): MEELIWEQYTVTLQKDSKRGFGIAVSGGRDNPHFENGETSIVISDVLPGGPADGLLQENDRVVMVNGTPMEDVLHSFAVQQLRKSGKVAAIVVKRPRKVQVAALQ

Binder | pKd (APBA1_2, Q02410) | pKd (CARD11, Q9BXL7) | pKd (DLG4_3, P78352) | pKd (DLG5_1, Q8TDM6) | pKd (GRASP, Q7Z6J2) | pKd (GRIP2_4, Q9C0E4) | pKd (GRIP2_6, Q9C0E4) | pKd (HTRA2, O43464) | pKd (IL16_4, Q14005) | pKd (Inadl_3, Q8NI35) | pKd (Inadl_8, Q8NI35) | pKd (Inadl_9, Q8NI35) | pKd (LIMK2, P53671) | pKd (LNX1_3, Q8TBB1) | pKd (LNX2_3, Q8N448) | pKd (MAGI1_1, Q96QZ7) | pKd (MAGI2_2, Q86UL8) | pKd (NHERF2_2, Q15599) | pKd (NHERF3_4, Q5T2W1) | pKd (PARD3_3, Q8TEW0) | also measured
LRYARPADAL [PPP1R3G, B7ZBB8] | 3.82 | below the threshold | below the threshold | below the threshold | 3.47 | below the threshold | below the threshold | below the threshold | below the threshold | below the threshold | below the threshold | below the threshold | below the threshold | below the threshold | below the threshold | below the threshold | below the threshold | below the threshold | below the threshold | below the threshold | pKd (LIN7A, O14910): below the threshold; pKd (MPDZ_12, O75970): below the threshold; pKd (NHERF4_1, Q86UT5-2): 4.29; pKd (PDZD2_2, O15018): below the threshold; pKd (RAPGEF6, Q8TEU7): below the threshold; pKd (SCRIB_1, Q14160): below the threshold; pKd (SHANK1, Q9Y566): below the threshold; pKd (SNX27, Q96L92): 3.49; pKd (TJP2_1, Q9UDY2): below the threshold
GDHLDRRVVL [VAC14, Q08AM6] | below the threshold | below the threshold | below the threshold | below the threshold | below the threshold | below the threshold | below the threshold | 3.48 | below the threshold | below the threshold | below the threshold | below the threshold | below the threshold | below the threshold | below the threshold | below the threshold | below the threshold | below the threshold | below the threshold | 3.48 | pKd (LIN7A, O14910): below the threshold; pKd (MPDZ_12, O75970): 3.75; pKd (NHERF4_1, Q86UT5-2): 4.07; pKd (PDZD2_2, O15018): below the threshold; pKd (RAPGEF6, Q8TEU7): below the threshold; pKd (SCRIB_1, Q14160): below the threshold; pKd (SHANK1, Q9Y566): below the threshold; pKd (SNX27, Q96L92): below the threshold; pKd (TJP2_1, Q9UDY2): below the threshold
VGIERETDVL [EZH1, Q92800] | below the threshold | below the threshold | below the threshold | below the threshold | 4.36 | below the threshold | below the threshold | below the threshold | 3.48 | below the threshold | below the threshold | below the threshold | below the threshold | below the threshold | below the threshold | below the threshold | below the threshold | 3.6 | below the threshold | 3.67 | pKd (MPDZ_12, O75970): below the threshold; pKd (NHERF4_1, Q86UT5-2): 3.8; pKd (PDZD2_2, O15018): below the threshold; pKd (RAPGEF6, Q8TEU7): below the threshold; pKd (SCRIB_1, Q14160): below the threshold; pKd (SHANK1, Q9Y566): below the threshold; pKd (SNX27, Q96L92): below the threshold; pKd (TJP2_1, Q9UDY2): below the threshold

Further lines, with some results ahead:

pKd (APBA1_2, Q02410) | pKd (CARD11, Q9BXL7) | pKd (DLG4_3, P78352) | pKd (DLG5_1, Q8TDM6) | pKd (GRASP, Q7Z6J2) | pKd (GRIP2_4, Q9C0E4) | pKd (GRIP2_6, Q9C0E4) | pKd (HTRA2, O43464) | pKd (IL16_4, Q14005) | pKd (Inadl_3, Q8NI35) | pKd (Inadl_8, Q8NI35) | pKd (Inadl_9, Q8NI35) | pKd (LIMK2, P53671) | pKd (LNX1_3, Q8TBB1) | pKd (LNX2_3, Q8N448) | pKd (MAGI1_1, Q96QZ7) | pKd (MAGI2_2, Q86UL8) | pKd (NHERF2_2, Q15599) | pKd (NHERF3_4, Q5T2W1) | pKd (PARD3_3, Q8TEW0) | Binder | also measured
below the threshold | below the threshold | below the threshold | below the threshold | below the threshold | below the threshold | below the threshold | below the threshold | below the threshold | below the threshold | 4.18 | below the threshold | below the threshold | below the threshold | below the threshold | below the threshold | below the threshold | below the threshold | below the threshold | below the threshold | KSTTRSSSSC [NDE1, Q9NXR1;Q9NXR1-2] | pKd (LIN7A, O14910): below the threshold; pKd (MPDZ_12, O75970): below the threshold; pKd (PDZD2_2, O15018): 4.09; pKd (RAPGEF6, Q8TEU7): below the threshold; pKd (SCRIB_1, Q14160): below the threshold; pKd (SHANK1, Q9Y566): below the threshold; pKd (SNX27, Q96L92): below the threshold; pKd (TJP2_1, Q9UDY2): below the threshold
below the threshold | below the threshold | below the threshold | below the threshold | below the threshold | below the threshold | below the threshold | below the threshold | below the threshold | below the threshold | below the threshold | below the threshold | below the threshold | below the threshold | below the threshold | below the threshold | below the threshold | below the threshold | below the threshold | below the threshold | EYRKDNKVAA [LSM14A, Q8ND56;Q8ND56-2] | pKd (LIN7A, O14910): below the threshold; pKd (PDZD2_2, O15018): below the threshold; pKd (RAPGEF6, Q8TEU7): below the threshold; pKd (SCRIB_1, Q14160): below the threshold; pKd (SNX27, Q96L92): below the threshold
